{"source": "patent US20080187554A1", "about": "“Process for producing stable HIV Th-CTL peptides” (Wyeth, priority 2005, published 2008)", "assay": "Stability by RP-HPLC for peptide quantification", "assay_type": "physicochemical", "conditions": "lyophilized, 40° C., six-months time point, all three concentrations (FIGS. 6-8)", "text": "The stability was also monitored for pre-lyophilization formulations. Stability assays basically include appearance (visual inspection), pH, FLS, peptide fluorescence, and RP-HPLC for peptide quantification.", "data": [{"substance": "H-Lys-Gln-Ile-Ile-Asn-Met-Trp-Gln-Glu-Val-Gly-Lys-Ala-Met-Tyr-Ala-Lys-Ala-Phe-Ser-Pro-Glu-Val-Ile-Pro-Met-Phe-OH (H-KQIINMWQEVGKAMYAKAFSPEVIPMF-OH; also: acetate salt) [Peptide A, HIV Th/CTL peptide]", "values": [{"measurement": "potency change at accelerated temperature", "result": "potency decreases"}]}]}
